B1: EcTai4 (type VI amidase immunity 4 from Enterobacter cloacae), residues 19-117 (domain or fragment)
chain: QTLPDISTFSQQQIFENWVQNRCIGKIADSKSLKEDADASAAAWLEASNLPAENFEKADEVIVSLLKQKVGGTEPGHYQILKCTLIANSDAIRPLKSSK
notes: Tai4, type VI amidase immunity 4, E. cloacae, residues 19-117 without the N-terminal 18-residue signal peptide, amplified from genomic DNA; pET21a; Se-Met-labelled protein was used for the crystal structure; The construct of the His-EcTai4 of the pull-down is not described on its own; also called His-EcTai4; His-tag EcTai4; source: E. coli BL21 (DE3), co-expressed with StTae4, purified (crystal, …)
B2: StTae4 (type VI amidase effector 4 from Salmonella typhimurium) (enzyme)
chain: MNRPSFNEAWLAFRKVNHSVADVGSIIGGNVGKNITGGYFQNACPIRMSYVLNATGFPIARNSPYAKVSGADNKFYIYRVNDMIDYLTHTMGKPDLIVNNPKQSDFIGKKGIIVVKGHGWSNARGHVTLWNGSICSDQCHLLNDPDNGPFVPEVGTLWILP
notes: Tae4, type VI amidase effector 4, S. Typhimurium, full length, amplified from genomic DNA; cloned into NcoI/XhoI of pET28at-plus (introduces an N-terminal TEV cleavage site); Se-Met-labelled protein was used for the crystal structure; The vector adds an N-terminal TEV cleavage site; the pull-down methods call the effectors 'native effector proteins'; source: E. coli BL21 (DE3), co-expressed with …

How the values were obtained:
[1] = biological target: the molecule itself; test: SAXS; purified complex in solution at 1, 3 and 5 mg/ml; theoretical curve of one tetramer of the crystal fitted to the experimental data, discrepancy 1.625
[2] = biological target: B1; test: as above; settings: both partners purified

Row | Binder | stoichiometry N [1] | stoichiometry N [2]
1 | B1 | 2 | 
2 | B2 |  | 2 Tae4 molecules per Tai4 homodimer

— paper PMC3759425, “Insights into the Cross-Immunity Mechanism within Effector Families of Bacteria Type VI Secretion System from the Structure of StTae4-EcTai4 Complex” (PLoS ONE, 2013)
